In patent US20200182882A1:

How the values were obtained:
[1] = molecular target: T1, CD20 on a CD20 expressing target cell line (Wil2-S) (UniProt P11836); assay: cell-based or functional assay
T1 sequence (looked up): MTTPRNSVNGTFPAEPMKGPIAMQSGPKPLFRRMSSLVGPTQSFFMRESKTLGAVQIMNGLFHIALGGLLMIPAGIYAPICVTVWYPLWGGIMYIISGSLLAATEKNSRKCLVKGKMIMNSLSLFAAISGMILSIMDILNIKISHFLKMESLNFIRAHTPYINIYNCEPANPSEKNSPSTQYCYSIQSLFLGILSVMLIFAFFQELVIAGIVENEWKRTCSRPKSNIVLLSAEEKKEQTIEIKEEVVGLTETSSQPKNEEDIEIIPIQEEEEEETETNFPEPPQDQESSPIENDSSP

[2] = molecular target: CD3 (TCR complex subunit) on T cells (Jurkat reporter cells; human PBMC T cells) (human) (UniProt P07766); assay: cell-based or functional assay
Chain of UniProt P07766 (P07766 23-207, one chain of several): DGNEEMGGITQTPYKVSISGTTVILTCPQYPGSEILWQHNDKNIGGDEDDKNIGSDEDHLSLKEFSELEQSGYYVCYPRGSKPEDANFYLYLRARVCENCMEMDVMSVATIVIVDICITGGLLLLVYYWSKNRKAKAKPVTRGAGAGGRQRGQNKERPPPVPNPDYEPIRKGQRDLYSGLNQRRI

B1: αCD20/αCD3 TDB (bispecific antibody, from a related filing, V domains shown)
VH 1: EVQLVESGGGLVQPGGSLRLSCAASGYTFTSYNMHWVRQAPGKGLEWVGAIYPGNGDTSYNQKFKGRFTISVDKSKNTLYLQMNSLRAEDTAVYYCARVVYYSNSYWYFDVWGQGTLVTVSS
VL 1: DIQMTQSPSSLSASVGDRVTITCRASSSVSYMHWYQQKPGKAPKPLIYAPSNLASGVPSRFSGSGSGTDFTLTISSLQPEDFATYYCQQWSFNPPTFGQGTKVEIKR
VH 2: EVQLVQSGAEVKKPGASVKVSCKASGYTFTNYYIHWVRQAPGQGLEWIGWIYPGDGNTKYNEKFKGRATLTADTSTSTAYLELSSLRSEDTAVYYCARDSYSNYYFDYWGQGTLVTVSS
VL 2: DIVMTQSPDSLAVSLGERATINCKSSQSLLNSRTRKNYLAWYQQKPGQPPKLLIYWASTRESGVPDRFSGSGSGTDFTLTISSLQAEDVAVYYCTQSFILRTFGQGTKVEIK
EC50 of T cell activation (CD69+/CD25+), Human PBMC Donor 1, in presence of target cells [1]: 5.5 ng/mL
EC50 of T cell activation (CD69+/CD25+), Human PBMC Donor 2, in presence of target cells [1]: 4.4 ng/mL
EC50 of luciferase reporter activity, Jurkat/NFκBLuc, in presence of target cells [1]: 1.3 ng/mL
EC50 of T cell activation (CD69+/CD25+), Human PBMC Donor 1, in presence of target cells [2]: 5.5 ng/mL
EC50 of T cell activation (CD69+/CD25+), Human PBMC Donor 2, in presence of target cells [2]: 4.4 ng/mL
EC50 of luciferase reporter activity, Jurkat/NFκBLuc, in presence of target cells [2]: 1.3 ng/mL
luciferase activity of Jurkat/NFκBLuciferase clone 2 in the presence of a CD20 expressing target cell line, against anti-CD3 homodimer [2]: 1000 fold
